Assay results reported in US12419964B2, “Antibody drug conjugate (ADC) targeting Nectin 4 and comprising an exatecan payload” (ELI LILLY AND COMPANY, priority 2023, dated 2025).

T1: Nectin-4 (Homo sapiens, UniProt Q96NY8)
T1 construct: endogenous in cells
T1 sequence (Q96NY8 32-510): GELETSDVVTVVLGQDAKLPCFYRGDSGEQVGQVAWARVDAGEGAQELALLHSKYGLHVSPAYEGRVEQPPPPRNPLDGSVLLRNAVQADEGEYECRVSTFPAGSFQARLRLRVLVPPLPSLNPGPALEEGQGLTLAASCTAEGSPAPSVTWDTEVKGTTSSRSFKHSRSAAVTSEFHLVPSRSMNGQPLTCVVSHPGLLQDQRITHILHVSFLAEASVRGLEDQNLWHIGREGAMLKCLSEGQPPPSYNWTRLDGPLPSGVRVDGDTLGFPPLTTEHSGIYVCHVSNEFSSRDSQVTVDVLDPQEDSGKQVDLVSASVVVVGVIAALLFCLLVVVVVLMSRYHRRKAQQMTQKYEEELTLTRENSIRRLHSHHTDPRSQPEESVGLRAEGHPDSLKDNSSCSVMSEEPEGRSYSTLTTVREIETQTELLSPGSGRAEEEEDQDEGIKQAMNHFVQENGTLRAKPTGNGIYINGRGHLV


How the values were obtained:
Nectin-4 = target: T1, Nectin-4; conditions: described in WO2022/207822 and WO2022/207825; cited from earlier work
[1] = Hydrophobic interaction chromatography (HIC) versus naked 15A7.5 mAb; assay type: physicochemical; conditions: compared with naked 15A7.5 mAb (FIG. 2)
Description: As determined by SEC-HPLC, less than 5% material was aggregated. […] (See FIG. 2 and corresponding Brief Description). […] (See FIG. 3 and corresponding Brief Description). In vitro cytotoxic activity was assessed for the HCT-116-2G10 clone expressing human nectin-4. (See FIG. 4 and corresponding Brief Description).

Molecule	selectivity of affinity, tumor cells versus keratinocytes (Nectin-4)	hydrophilicity by HIC profile [1]
15A7.5: anti-Nectin-4 monoclonal antibody described in WO2022/207822 and WO2022/207825 (antibody) heavy: EVQLVESGGGLVQPGGSLRLSCAASGFTFSNYGMAWVRQAPGKGLEWVSFISNLAYGINYADTVTGRFTISRDNAKNSLYLQMNSLRAEDTAVYYCARGARATGWFAYWGQGTLVTVSSASTKGPSVFPLAPSSKSTSGGTAALGCLVKDYFPEPVTVSWNSGALTSGVHTFPAVLQSSGLYSLSSVVTVPSSSLGTQTYICNVNHKPSNTKVDKRVEPKSCDKTHTCPPCPAPEFEGGPSVFLFPPKPKDTLMISRTPEVTCVVVDVSHEDPEVKFNWYVDGVEVHNAKTKPREEQYNSTYRVVSVLTVLHQDWLNGKEYKCKVSNKALPASIEKTISKAKGQPREPQVYTLPPSREEMTKNQVSLTCLVKGFYPSDIAVEWESNGQPENNYKTTPPVLDSDGSFFLYSKLTVDKSRWQQGNVFSCSVMHEALHNHYTQKSLSLSPGK light: DIQMTQSPSSLSASVGDRVTITCKASQNVDTHVAWYQQKPGKAPKALIYSASYRYSGVPSRFSGSGSGTDFTLTISSLQPEDFATYYCQQYNSYPLTFGGGTKVEIKRTVAAPSVFIFPPSDEQLKSGTASVVCLLNNFYPREAKVQWKVDNALQSGNSQESVTEQDSKDSTYSLSSTLTLSKADYEKHKVYACEVTHQGLSSPVTKSFNRGEC	selective affinity for tumor cells versus keratinocytes	–
ETx-22: ADC of H1L2_15A7.5 anti-Nectin-4 mAb (HC SEQ ID NO:5, LC SEQ ID NO:6) conjugated via cysteines to exatecan Linker-Payload of Formula (L-P′) (conjugate, exatecan linker-payload conjugated via cysteines) heavy: EVQLVESGGGLVQPGGSLRLSCAASGFTFSNYGMAWVRQAPGKGLEWVSFISNLAYGINYADTVTGRFTISRDNAKNSLYLQMNSLRAEDTAVYYCARGARATGWFAYWGQGTLVTVSSASTKGPSVFPLAPSSKSTSGGTAALGCLVKDYFPEPVTVSWNSGALTSGVHTFPAVLQSSGLYSLSSVVTVPSSSLGTQTYICNVNHKPSNTKVDKRVEPKSCDKTHTCPPCPAPEFEGGPSVFLFPPKPKDTLMISRTPEVTCVVVDVSHEDPEVKFNWYVDGVEVHNAKTKPREEQYNSTYRVVSVLTVLHQDWLNGKEYKCKVSNKALPASIEKTISKAKGQPREPQVYTLPPSREEMTKNQVSLTCLVKGFYPSDIAVEWESNGQPENNYKTTPPVLDSDGSFFLYSKLTVDKSRWQQGNVFSCSVMHEALHNHYTQKSLSLSPGK light: DIQMTQSPSSLSASVGDRVTITCKASQNVDTHVAWYQQKPGKAPKALIYSASYRYSGVPSRFSGSGSGTDFTLTISSLQPEDFATYYCQQYNSYPLTFGGGTKVEIKRTVAAPSVFIFPPSDEQLKSGTASVVCLLNNFYPREAKVQWKVDNALQSGNSQESVTEQDSKDSTYSLSSTLTLSKADYEKHKVYACEVTHQGLSSPVTKSFNRGEC	–	high homogenous hydrophilicity
